Assays:
[1] = molecular target: CD47 (UniProt Q08722); assay: flow cytometry, CD47-overexpressing cells
[2] = molecular target: CD47 (UniProt Q08722); assay: competitive ELISA vs SIRPα

Work on B6H12 yielded an EC50 [1] of 5.59 nM and an IC50 [2] of 0.499 nM.
